The series concerns the molecule itself. The experiment in a line: SEC + native gel or EMSA.

B1: Cu, Zn superoxide dismutase 1 (SOD1) F20L-H46Q, de-metallated (enzyme)
chain: not shown
Usually stoichiometry N stands for the number of molecules, sites or subunits per partner or assembly. For the protein B1, the “stoichiometry N” value was determined as 3.

B2: Cu, Zn superoxide dismutase 1 (SOD1) H46Q-G108H, de-metallated (enzyme)
chain: not shown
With B2, the “stoichiometry N” value came out at 3.

These data come from doi:10.1101/2021.08.17.456705 (bioRxiv, 2021).
